# Assay results reported in PMC5662892.
# Tested on: ORC-Qdot705 (Orc1-6) (budding yeast)
# Assay: single-molecule TIRFM
# Conditions: RPA: 20 mM Tris pH 7.5, 50 mM NaCl, 2 mM EDTA, 0.2 mg/ml BSA, ORC: 25 mM HEPES pH 7.6, 12 mM MgOAc, 50 uM ZnOAc, 1 mM DTT, 225 mM KGlut, 3 mM ATP
substance,measurement,value
lambda-ARS1,binding signal (% of binding positions at ARS1 site),12.8
